B1: His-S-tagged PDCD11 (1033-1431) (domain or fragment, human, UniProt Q14690 1033-1431, looked up)
chain: LSIGDMVTGTVKSIKPTHVVVTLEDGIIGCIHASHILDDVPEGTSPTTKLKVGKTVTARVIGGRDMKTFKYLPISHPRFVRTIPELSVRPSELEDGHTALNTHSVSPMEKIKQYQAGQTVTCFLKKYNVVKKWLEVEIAPDIRGRIPLLLTSLSFKVLKHPDKKFRVGQALRATVVGPDSSKTLLCLSLTGPHKLEEGEVAMGRVVKVTPNEGLTVSFPFGKIGTVSIFHMSDSYSETPLEDFVPQKVVRCYILSTADNVLTLSLRSSRTNPETKSKVEDPEINSIQDIKEGQLLRGYVGSIQPHGVFFRLGPSVVGLARYSHVSQHSPSKKALYNKHLPEGKLLTARVLRLNHQKNLVELSFLPGDTGKPDVLSASLEGQLTKQEERKTEAEERDQKG
notes: source: expressed and purified

Columns and labels:
Assay in all cases: pull-down; GST pulldown in vitro; GST-tagged p53 or HDM2 (full length or truncations) as bait, His-S-tagged PDCD11 (full length or truncations) as prey
Conditions in all cases: both partners purified
[1] = molecular target: T1, GST-tagged full-length HDM2 (UniProt Q00987-11 1-497)
T1 construct: HDM2, full length; also called HDM2-FL; GST-HDM2; source: expressed and purified

[2] = molecular target: B1
[3] = molecular target: T2, His-S-tagged full-length PDCD11 (programmed cell death 11) (human, UniProt Q14690 1-1871)
T2 construct: programmed cell death 11 (PDCD11), human, Gene ID 22984, 1871 amino acids, full length; also called PDCD11-FL; ALG-4; source: expressed and purified
T2 sequence (Q14690 whole entry): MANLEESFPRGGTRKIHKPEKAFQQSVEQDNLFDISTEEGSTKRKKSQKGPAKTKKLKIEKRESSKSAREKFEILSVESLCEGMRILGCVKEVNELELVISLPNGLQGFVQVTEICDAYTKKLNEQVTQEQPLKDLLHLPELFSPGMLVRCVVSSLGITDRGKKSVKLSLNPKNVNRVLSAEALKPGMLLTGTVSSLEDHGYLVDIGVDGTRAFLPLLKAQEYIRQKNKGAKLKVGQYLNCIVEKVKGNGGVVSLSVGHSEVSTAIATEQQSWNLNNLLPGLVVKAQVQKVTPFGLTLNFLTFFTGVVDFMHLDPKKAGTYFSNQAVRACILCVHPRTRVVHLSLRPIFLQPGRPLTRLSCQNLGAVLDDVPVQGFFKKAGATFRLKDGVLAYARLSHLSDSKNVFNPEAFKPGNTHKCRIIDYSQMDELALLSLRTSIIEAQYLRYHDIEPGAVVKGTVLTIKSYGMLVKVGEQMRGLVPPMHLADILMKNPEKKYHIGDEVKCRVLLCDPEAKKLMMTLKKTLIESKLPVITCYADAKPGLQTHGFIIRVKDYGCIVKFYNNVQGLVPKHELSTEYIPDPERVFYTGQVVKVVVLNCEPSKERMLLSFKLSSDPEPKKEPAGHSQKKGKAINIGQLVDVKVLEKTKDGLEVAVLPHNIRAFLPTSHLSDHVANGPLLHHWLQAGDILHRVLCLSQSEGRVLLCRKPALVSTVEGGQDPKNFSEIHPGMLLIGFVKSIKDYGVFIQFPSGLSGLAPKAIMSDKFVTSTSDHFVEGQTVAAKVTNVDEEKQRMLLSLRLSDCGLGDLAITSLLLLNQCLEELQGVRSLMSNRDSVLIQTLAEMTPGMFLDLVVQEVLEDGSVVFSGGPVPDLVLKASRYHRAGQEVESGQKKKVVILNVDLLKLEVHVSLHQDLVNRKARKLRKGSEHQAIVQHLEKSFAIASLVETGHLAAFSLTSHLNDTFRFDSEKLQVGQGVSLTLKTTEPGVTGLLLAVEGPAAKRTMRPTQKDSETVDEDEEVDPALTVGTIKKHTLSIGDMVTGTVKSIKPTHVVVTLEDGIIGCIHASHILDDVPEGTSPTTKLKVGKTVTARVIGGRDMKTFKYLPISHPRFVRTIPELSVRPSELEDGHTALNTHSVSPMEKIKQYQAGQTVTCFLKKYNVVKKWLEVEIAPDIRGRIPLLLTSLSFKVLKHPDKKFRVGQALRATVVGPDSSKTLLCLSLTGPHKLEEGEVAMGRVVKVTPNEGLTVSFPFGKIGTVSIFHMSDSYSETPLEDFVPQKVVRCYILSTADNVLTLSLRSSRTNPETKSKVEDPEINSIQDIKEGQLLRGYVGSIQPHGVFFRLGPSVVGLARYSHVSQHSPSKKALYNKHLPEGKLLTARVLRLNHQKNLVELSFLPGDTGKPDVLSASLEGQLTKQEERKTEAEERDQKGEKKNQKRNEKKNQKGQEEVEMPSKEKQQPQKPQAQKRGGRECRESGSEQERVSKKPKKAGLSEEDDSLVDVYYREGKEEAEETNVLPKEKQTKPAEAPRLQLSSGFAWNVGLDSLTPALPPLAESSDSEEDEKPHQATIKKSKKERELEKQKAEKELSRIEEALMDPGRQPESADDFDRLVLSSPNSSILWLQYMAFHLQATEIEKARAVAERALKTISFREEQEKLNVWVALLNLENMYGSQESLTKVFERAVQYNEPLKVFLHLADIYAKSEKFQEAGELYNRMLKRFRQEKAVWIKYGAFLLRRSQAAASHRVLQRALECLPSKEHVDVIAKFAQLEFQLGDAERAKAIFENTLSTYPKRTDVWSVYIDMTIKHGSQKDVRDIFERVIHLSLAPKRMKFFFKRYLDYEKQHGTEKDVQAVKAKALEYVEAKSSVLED

Row | Binder | binding result [1] | binding result [2] | binding result [3]
1 | B1 | binds | – | –
2 | GST-tagged HDM2 (349-497) (domain or fragment, UniProt Q00987-11 349-497, looked up, source: expressed and purified) EKAKLENSTQAEEGFDVPDCKKTIVNDSRESCVEENDDKITQASQSQESEDYSQPSTSSSIIYSSQEDVKEFEREETQDKEESVESSLPLNAIEPCVICQGRPKNGCIVHGKTGHLMACFTCAKKLKKRNKPCPVCRQPIQMIVLTYFP | – | binds | binds

Source: article PMC10703783, “Programmed cell death 11 modulates but not entirely relies on p53-HDM2 loop to facilitate G2/M transition in colorectal cancer cells” (Oncogenesis, 2023)
